Substrate in this data set: N=C(N)NCCC[C@H](NC(=O)[C@H](Cc1ccccc1)NC(=O)[C@@H]1CCCN1C(=O)c1ccccc1)C(=O)Nc1ccc([N+](=O)[O-])cc1
Briefly: Km and vmax determination with substrate (Lineweaver-Burk), plasmin. Type of data set: biochemical. The conditions noted are these: other: plasmin; substrate concentration varied, enzyme constant; measured at 405 nm. The procedure: As is evident from equation (2) constants Km and k3 determine the activity of the enzyme substrate for a given enzyme. For determining these constants the following procedure is followed:
The enzyme and the substrate are mixed in a buffer solution, and the reaction is followed spectrophotometrically for 2 to 30 minutes. The concentration of substrate [S] is varied, whereas the enzyme concentration [E] is kept constant. If the extinction (OD) (= optical density) is plotted in a co-ordinate system as a function of time, a curve is obtained the tangent of which (difference in extinction per minute, Δ OD/minute, from which the quantity in μmoles of pNA/min (v) can be calculated) at time zero corresponds to the ideal course of the hydrolysis. By means of this tangent the initial rate of the hydrolysis can be determined.
If 1/v is plotted against 1/[S], a Lineweaver-Burk diagram (cf. "Kurzes Lehrbuch der Biochemie" by P. KARSON, Georg Thieme-Verlag, Stuttgart, 1967, p. 70) is obtained from which vmax and Km can be determined graphically.
Km and k3 = vmax /E were determined with N^α-Bz-Pro-Phe-Arg-pNA^. HCl (i.e. the substrate prepared according to Example 1) for plasma kallikrein, trypsin, plasmin and thrombin.

B1: plasmin (Homo sapiens) (protein)
chain: VVGGCVAHPHSWPWQVSLRTRFGMHFCGGTLISPEWVLTAAHCLEKSPRPSSYKVILGAHQEVNLEPHVQEIEVSRLFLEPTRKDIALLKLSSPAVITDKVIPACLPSPNYVVADRTECFITGWGETQGTFGAGLLKEAQLPVIENKVCNRYEFLNGRVQSTELCAGHLAGGTDSCQGDSGGPLVCFEKDKYILQGVTSWGLGCARPNKPGVYVRVSRFVTWIEGVMRNN
Usually Km stands for the substrate concentration at which the rate is half of its maximum. Regarding B1, the Km was 140 µM.

The record behind these values is patent US4016042A, “Substrate for the quantitative determination of enzymes” (Pentapharm A.G., priority 1974, dated 1977).
